Consider two molecules from article PMC4947157.

Data set [1] addresses T1, FANCD2;FANCI (Homo sapiens;Homo sapiens, UniProt Q9BXW9;Q9NVI1 1-1451;1-1328, |). Kind of data set: EMSA; supershifted by anti-HA; 0.5 ug protein, 1 nM DNA; titrated 0.125-0.5 ug; EMSA: 25 mM Tris-HCl pH 7.5, 100 mM NaCl, 6% glycerol, 1 mM DTT, 10 ul, room temperature 1 h; 4% PAGE in 0.4x TBE at 4 C. (In general: A gel shift assay detects complexes by their altered migration in electrophoresis.)

Data set [2] deals with T1, FANCD2;FANCI. Briefly: EMSA; 0.5 ug protein, 1 nM DNA; significantly stronger than non-crosslinked fork; titrated 0.125-0.5 ug; EMSA: 25 mM Tris-HCl pH 7.5, 100 mM NaCl, 6% glycerol, 1 mM DTT, 10 ul, room temperature 1 h; 4% PAGE in 0.4x TBE at 4 C.

T1 sequence (Q9BXW9 whole entry, chain 1 of 2): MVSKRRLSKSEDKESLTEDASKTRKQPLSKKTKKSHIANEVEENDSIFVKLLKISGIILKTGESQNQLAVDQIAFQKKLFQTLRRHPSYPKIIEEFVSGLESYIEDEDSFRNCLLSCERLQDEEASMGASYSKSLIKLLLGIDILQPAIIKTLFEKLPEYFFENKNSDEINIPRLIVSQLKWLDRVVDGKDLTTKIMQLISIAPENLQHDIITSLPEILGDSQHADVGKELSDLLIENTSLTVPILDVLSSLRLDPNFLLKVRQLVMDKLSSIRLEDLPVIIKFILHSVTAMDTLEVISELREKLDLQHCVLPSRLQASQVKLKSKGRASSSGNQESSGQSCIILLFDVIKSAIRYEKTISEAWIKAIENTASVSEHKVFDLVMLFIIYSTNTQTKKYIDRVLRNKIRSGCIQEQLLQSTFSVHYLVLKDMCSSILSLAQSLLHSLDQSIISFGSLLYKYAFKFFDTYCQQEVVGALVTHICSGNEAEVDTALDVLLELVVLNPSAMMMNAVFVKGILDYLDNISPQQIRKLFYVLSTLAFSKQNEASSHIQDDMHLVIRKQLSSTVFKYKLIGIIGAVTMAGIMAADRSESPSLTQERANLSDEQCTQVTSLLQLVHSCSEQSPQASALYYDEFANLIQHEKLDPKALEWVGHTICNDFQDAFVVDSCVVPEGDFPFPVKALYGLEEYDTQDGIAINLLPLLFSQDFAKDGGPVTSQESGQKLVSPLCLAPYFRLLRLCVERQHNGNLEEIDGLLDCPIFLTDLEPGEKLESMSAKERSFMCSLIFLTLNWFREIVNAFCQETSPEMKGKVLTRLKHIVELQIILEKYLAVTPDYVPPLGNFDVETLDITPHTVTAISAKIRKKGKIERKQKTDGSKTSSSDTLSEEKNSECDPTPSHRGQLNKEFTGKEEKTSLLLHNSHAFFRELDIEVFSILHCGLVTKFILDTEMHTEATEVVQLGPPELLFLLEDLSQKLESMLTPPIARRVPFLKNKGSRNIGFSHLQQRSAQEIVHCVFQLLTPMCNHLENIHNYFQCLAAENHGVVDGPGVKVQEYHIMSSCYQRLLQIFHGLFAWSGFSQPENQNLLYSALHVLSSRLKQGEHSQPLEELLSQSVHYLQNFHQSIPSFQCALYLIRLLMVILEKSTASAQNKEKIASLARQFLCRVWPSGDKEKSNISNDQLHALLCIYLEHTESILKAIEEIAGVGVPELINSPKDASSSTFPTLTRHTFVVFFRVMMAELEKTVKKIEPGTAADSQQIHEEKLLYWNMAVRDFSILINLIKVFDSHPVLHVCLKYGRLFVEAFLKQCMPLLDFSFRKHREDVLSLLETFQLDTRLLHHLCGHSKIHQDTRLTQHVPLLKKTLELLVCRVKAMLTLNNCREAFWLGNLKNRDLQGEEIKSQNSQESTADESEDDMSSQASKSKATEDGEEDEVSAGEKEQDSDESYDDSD
T1 sequence (Q9NVI1 whole entry, chain 2 of 2): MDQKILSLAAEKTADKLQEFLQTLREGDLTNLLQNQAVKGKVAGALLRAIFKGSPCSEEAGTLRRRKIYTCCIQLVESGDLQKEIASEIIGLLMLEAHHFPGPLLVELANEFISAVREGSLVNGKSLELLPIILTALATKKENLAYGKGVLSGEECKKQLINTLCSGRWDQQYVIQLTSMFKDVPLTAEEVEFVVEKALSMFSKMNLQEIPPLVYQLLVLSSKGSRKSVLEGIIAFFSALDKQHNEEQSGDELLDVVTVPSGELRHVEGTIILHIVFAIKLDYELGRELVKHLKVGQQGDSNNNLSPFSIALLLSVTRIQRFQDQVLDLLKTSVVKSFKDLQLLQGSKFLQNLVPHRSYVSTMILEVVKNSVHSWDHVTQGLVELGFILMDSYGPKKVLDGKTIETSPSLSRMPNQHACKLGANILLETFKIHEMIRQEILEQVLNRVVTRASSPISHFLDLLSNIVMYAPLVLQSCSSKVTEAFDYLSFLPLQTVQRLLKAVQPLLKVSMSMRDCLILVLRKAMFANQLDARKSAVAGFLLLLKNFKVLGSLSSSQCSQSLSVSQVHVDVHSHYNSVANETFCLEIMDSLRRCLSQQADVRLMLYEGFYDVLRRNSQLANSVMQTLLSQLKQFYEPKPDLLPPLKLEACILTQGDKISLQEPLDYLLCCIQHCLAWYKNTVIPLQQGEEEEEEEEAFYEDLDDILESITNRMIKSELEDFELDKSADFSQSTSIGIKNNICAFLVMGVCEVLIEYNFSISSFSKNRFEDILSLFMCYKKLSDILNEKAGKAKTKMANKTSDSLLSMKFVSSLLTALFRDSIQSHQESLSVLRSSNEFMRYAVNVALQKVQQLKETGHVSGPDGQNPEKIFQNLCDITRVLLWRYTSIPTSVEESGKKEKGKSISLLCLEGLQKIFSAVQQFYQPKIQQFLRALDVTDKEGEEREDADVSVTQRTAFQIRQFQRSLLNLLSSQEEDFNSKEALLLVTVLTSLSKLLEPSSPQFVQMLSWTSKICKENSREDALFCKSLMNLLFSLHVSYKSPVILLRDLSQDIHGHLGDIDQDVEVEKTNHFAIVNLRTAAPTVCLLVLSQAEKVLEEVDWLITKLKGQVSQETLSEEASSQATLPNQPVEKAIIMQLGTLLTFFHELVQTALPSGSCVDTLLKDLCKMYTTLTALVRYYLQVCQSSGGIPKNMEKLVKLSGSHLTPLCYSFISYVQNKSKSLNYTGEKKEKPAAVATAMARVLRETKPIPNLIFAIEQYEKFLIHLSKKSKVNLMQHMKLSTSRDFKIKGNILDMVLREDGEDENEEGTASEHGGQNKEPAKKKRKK

B1: ICL14FF (dsDNA)
DNA 1: CATTGTGAATTCGCCTCTCTGTCTAGCCGAAGCTCGAAACGATCTTGTGC
DNA 2: GTCCATCAAAGTTCGACTGTGCGGCTAGACAGAGAGGCGAATTCACAATG
DNA 3: GCACAAGATCGTTTCGAGCTT
DNA 4: GTCGAACTTTGATGGAC
With B1, the binding result in data set [1] is listed as “binds”.

B2: ICL14FF-XL (dsDNA)
DNA 1: B1 DNA 1
DNA 2: B1 DNA 2
DNA 3: GCACAAGATCGTTTCGAGCTT
DNA 4: GTCGAACTTTGATGGAC
modifications: 4,5',8-trimethylpsoralen (TMP) interstrand crosslink between S5 and S6; crosslinked bases bold in original, not recoverable from text
With B2, the binding result in data set [2] was “binds”.
